Laboratory results reported in US20240002495A1 (MITSUBISHI TANABE PHARMA, published 2024).

What was measured:
[1] = target: T1, recombinant human IL-33 protein (residues 112 to 270) (ILC0701, ATGen Co. Ltd) (human, UniProt O95760 112-270); test: cell-based or functional assay
T1 sequence: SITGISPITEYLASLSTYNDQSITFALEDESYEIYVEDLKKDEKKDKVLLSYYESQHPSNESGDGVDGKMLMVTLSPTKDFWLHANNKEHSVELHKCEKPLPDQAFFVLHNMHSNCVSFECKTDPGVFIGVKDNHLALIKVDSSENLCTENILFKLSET

[2] = target: T2, 6His-AviTag-linked cynomolgus monkey IL-33 (residues 112 to 269) (cynomolgus monkey, UniProt O95760 112-269 (human entry), biotin on the AviTag portion (BirA) in the SPR of Example 7; used without biotinylation in Example 10); test: cell-based or functional assay
T2 chain: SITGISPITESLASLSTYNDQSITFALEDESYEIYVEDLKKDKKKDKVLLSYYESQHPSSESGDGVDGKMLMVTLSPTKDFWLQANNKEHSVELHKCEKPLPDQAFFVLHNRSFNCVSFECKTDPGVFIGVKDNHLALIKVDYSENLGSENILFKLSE

[3] = target: T1, recombinant human IL-33 protein …; test: KinExA in PBS, alkaline-purified IgG
Protocol: (§1) Mixture samples of a test antibody and a human IL-33 protein (ILC0701, available from ATGen Co. Ltd) were prepared. The human IL-33 protein was titrated to a constant concentration of test antibody (final concentration: several tens of pM to several hundreds of pM) over a wide concentration range of the human IL-33 protein (so that it covered the concentrations of the human IL-33 protein resulting from 12-step serial doubling dilutions, i.e. one- to 2048-fold, with the upper limit of final concentration set to several nM to several tens of nM). The mixture samples were incubated at a room temperature until the antigen-antibody reaction reached equilibrium. After the reaction reached equilibrium, the percentage of free anti-IL-33 antibody in each sample was analyzed using KinExA3200. The values of Kd were calculated by fitting the plot of percentages of anti-IL-33 antibody not bound to the human IL-33 protein (vertical axis) and concentrations of antigen (horizontal axis) to a theoretical formula, using a KinExA data analysis program (KinExA Pro Software v3.5.3, available from Sapidyne Instruments, Inc.). Beads for capturing the anti-IL-33 antibody were prepared by suspending 50 mg of Azlactone beads (Sapidyne) in 1 mL of coating solution (10 μg/mL human IL-33 protein (ILC0701, available from ATGen Co. Ltd), 50 mM sodium carbonate at pH of 9.6) and incubating the solution at a room temperature for one hour. The antibody for detection used was anti-human F(ab)′2-DyLight649 (Jackson, 309-495-006).

[4] = target: T3, full-length human IL-33 protein (human, UniProt O95760 1-270); test: KinExA in PBS, alkaline-purified IgG
T3 construct: also called Human IL-33 (Full-Length)
T3 sequence: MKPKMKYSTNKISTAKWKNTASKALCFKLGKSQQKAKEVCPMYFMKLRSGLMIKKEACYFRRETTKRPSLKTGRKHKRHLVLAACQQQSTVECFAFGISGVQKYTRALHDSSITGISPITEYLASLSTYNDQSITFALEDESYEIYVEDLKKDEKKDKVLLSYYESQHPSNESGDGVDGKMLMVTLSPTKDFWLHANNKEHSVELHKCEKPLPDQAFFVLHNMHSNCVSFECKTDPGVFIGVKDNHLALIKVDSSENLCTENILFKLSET
Protocol: as §1

[5] = target: T1, recombinant human IL-33 protein …; test: SPR (Biacore T200), human IL-33 (ILC0701) immobilized on CM5, Calibration Free Concentration Analysis of the preserved antibody against a control-preserved sample
Protocol: Each alkaline-purified antibody was dissolved in a citrate buffer (50 mM citric acid; 150 mM NaCl (pH: 6.3)) at a concentration of about 10 mg/mL, and was preserved at a temperature of 40° C. for four weeks, to evaluate the preservation stability of each test antibody (IgG). For evaluation of the monomer purity of each antibody after the preservation, monomer purity was measured by size exclusion chromatography analysis (SEC) and microchip capillary SDS electrophoresis (mCE-SDS), and antigen-binding activity was measured by surface plasmon resonance.
In order to confirm the presence of the antigen-binding ability after the preservation, the antigen-binding activity was measured with a surface plasmon resonance system, Biacore T200 (available from GE Healthcare). A human IL-33 protein (ILC0701, available from ATGen Co. Ltd) was immobilized onto a Sensor Chip CM5 (GE Healthcare) (the amount of immobilized protein was about 3000 to 6000 RU) with Amine Coupling Kit (GE Healthcare). Each preserved antibody solution was then diluted to 10-fold with a citric buffer (50 mM citric acid, 150 mM NaCl (pH: 6.3)), and the resulting solution was analyzed to measure the total protein concentration in the solution, using a microvolume spectrophotometer, Astragene II (Astranet Systems, Ltd.) (protein concentration: about 1 mg/mL). The antibody solution after the measurement of the total protein concentration was diluted to 1000-fold with HBS-EP buffer (10 mM HEPES, 150 mM NaCl, 3 mM EDTA, 0.05% (v/v) Surfactant P20 (at pH of 7.4)). The analyte was thereby prepared. The measurement temperature was 25° C. Each analyte was added for 36 seconds at two flow rates of 5 μL/min and 100 μL/min to obtain sensorgrams of the association phase. The sensorgrams were then analyzed by Calibration Free Concentration Analysis using a data analysis program (GE Healthcare, Biacore T200 Evaluation Software v1.0) to determine the concentration of the antibody having antigen-binding activity. As control, each test antibody after preservation at a temperature of 4° C. for four weeks was also analyzed to confirm the antigen-binding activity, to calculate the ratio of antigen-binding activity of each test antibody after the preservation at a temperature of 40° C. for four weeks.

IC50 of inhibition of IL-6 production by HUVEC (alkaline-purified IgG, human IL-33 100 ng/mL) [1]: 0.35 µg/mL
inhibition of IFN-γ production by human PBMC (alkaline-purified IgG 10 ug/mL, IL-33 10 ng/mL, IL-12 10 ng/mL) [1]: 96.9%
inhibition of production of IL-5 and IL-13 by KU-812 cells (alkaline-purified IgG 1 ug/mL; IL-33 3 ng/mL with IL-3 and C5a) [1]: ≥ 50%
percentage of inhibition (%) of IL-6 production by HUVEC (neutral-purified IgG 1 ug/mL, IL-33 100 ng/mL) [1]: 67%
IC50 of inhibition of IL-6 production by HUVEC (alkaline-purified IgG, cynomolgus monkey IL-33 100 ng/mL, not biotinylated) [2]: 0.43 µg/mL
Kd [3]: 100 pM
Kd [4]: 180 pM
% Active IgG (antigen binding activity after preservation at 40 C for 4 W) [5]: 99.3%
B1: A10-1C04 (IgG) (antibody, V domains shown)
VH: EVQLLESGGGLVQPGGSLRLSCAASGFTFSDYYMNWVRQAPGKGLEWVSSISRYSSYIYYADSVKGRFTISRDNSKNTLYLQMNSLRAEDTAVYYCARDIGGMDVWGQGTLVTVSS
VL: QSVLTQPPSASGTPGQRVTISCTGSSSNIGAVYDVHWYQQLPGTAPKLLIYRNNQRPSGVPDRFSGSKSGTSASLAISGLRSEDEADYYCQTYDSSRWVFGGGTKLTVL
notes: tested as neutral-purified and as alkaline-purified antibody; also called V1; IGN1
